Measured values as given in patent US7125979.
Non-standard residues stand in square brackets, D forms with d. No end group written: not given here.

Tests used:
Experiment in all cases: cell-based or functional assay
NPY Y2 receptor (mouse) = NPY Y2 receptor (mouse) (UniProt P97295)
MC3-R (mouse) = MC3-R (mouse) (UniProt P33033)
[1] = molecular target: µ-opioid receptor (mouse) (UniProt P42866)
µ-opioid receptor (mouse), sequence (P42866 whole entry): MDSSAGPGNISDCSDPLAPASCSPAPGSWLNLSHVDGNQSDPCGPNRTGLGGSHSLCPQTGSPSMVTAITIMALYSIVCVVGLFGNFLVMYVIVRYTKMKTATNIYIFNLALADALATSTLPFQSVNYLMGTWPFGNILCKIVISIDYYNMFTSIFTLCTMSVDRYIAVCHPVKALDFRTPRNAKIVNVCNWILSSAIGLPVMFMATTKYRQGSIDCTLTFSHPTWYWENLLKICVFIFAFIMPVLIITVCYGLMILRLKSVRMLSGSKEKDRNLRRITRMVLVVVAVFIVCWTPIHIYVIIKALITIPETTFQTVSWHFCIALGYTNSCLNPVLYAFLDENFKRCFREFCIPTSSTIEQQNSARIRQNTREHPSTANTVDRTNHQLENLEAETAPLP

MC3-R (mouse), sequence (P33033 whole entry): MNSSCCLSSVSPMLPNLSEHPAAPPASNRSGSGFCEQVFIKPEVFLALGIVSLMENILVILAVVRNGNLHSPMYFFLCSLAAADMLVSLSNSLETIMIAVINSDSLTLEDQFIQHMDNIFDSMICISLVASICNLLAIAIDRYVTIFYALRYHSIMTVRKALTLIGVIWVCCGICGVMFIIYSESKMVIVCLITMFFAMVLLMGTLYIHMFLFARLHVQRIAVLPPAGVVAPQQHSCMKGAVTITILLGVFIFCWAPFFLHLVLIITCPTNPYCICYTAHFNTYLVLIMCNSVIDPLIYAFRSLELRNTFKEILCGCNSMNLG
NPY Y2 receptor (mouse), sequence (P97295 whole entry): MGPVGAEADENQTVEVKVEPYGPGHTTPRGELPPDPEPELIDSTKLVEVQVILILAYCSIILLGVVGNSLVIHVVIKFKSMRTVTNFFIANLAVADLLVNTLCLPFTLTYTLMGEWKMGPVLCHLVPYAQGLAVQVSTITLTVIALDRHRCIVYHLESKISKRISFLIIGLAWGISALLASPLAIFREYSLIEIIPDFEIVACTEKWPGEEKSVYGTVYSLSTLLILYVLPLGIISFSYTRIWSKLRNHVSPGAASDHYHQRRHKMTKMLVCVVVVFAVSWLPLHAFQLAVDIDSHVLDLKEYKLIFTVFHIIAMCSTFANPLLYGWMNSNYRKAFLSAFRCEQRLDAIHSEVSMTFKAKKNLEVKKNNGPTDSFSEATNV

Molecule: N-acetyl (Leu^28, Leu^31) NPY (24-36) (from UniProt P01303 52-64) (peptide)
- reduction of the frequency of inhibitory postsynaptic currents (IPSCs) onto POMC neurons (NPY Y2 receptor (mouse)): 44.4%

Molecule: neuropeptide Y (from UniProt P01303 29-64)
- decrease of the frequency of GABAergic IPSCs in POMC cells (100 nM NPY) (NPY Y2 receptor (mouse)): 55%

Molecule: YVMGHFR[dW]DRFG (peptide, UniProt P01189 77-88, looked up, ends and bridges not checked) [D-Trp^8-γMSH]
- frequency of GABAergic IPSCs recorded from POMC neurons (7 nM) (MC3-R (mouse)): 280%
- hyperpolarization of POMC neurons (7 nM) (MC3-R (mouse)): -5.5 mV

Molecule: YGGFM (peptide, UniProt P01210 100-104, looked up) [met-enkephalin]
- hyperpolarization of the membrane potential of POMC cells (whole cell recording, 30 µM Met-Enk) [1]: 10 to 20 mV
